Data on 1 sequence can be found in patent publication US20180195086.

For the series, the system named is T1, piggyBac transposase (Trichoplusia ni).
T1 sequence: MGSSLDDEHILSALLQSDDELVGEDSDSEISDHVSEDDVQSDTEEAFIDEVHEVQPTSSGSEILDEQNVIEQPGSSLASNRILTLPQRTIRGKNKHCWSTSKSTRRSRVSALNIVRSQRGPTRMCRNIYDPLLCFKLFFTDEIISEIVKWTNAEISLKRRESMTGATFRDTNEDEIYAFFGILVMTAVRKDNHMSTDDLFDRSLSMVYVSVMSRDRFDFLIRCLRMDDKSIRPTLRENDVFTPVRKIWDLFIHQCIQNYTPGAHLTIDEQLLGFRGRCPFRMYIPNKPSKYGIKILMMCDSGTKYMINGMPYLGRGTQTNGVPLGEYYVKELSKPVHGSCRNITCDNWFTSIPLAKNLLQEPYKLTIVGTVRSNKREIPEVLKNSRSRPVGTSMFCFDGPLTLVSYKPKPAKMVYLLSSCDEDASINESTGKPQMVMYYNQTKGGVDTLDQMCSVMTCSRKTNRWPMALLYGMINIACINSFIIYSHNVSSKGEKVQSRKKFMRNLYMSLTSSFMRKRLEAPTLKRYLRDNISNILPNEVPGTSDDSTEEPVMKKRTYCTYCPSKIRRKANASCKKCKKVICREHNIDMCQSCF
Description: cell_activity. Conditions: RFP+ HEK-293 at 28 days.

In turn, “CCCTAGAAAGATAGTCTGCGTAAAATTGACGCATGCATGCGTCAATTTTACGCATGATTATCTTTAACGTACGTCACAATATGATTATCTTTCTAGGG (double strand)” had an activity of 0.72%.
